The Immune Epitope Database (IEDB)

How the values were obtained:
HLA-B*15:01 = assay: IEDB peptide-MHC binding, purified MHC/competitive/fluorescence; filed as Kd, often an IC50 or EC50 that approximates it; ≥ and ≤ were set here for values at or beyond the usual limits of such assays
HLA-B*18:01 [1] = assay: as above
HLA-B*15:17 = assay: as above; details: source organism: Zaire ebolavirus
HLA-B*51:01 = assay: as above; details: source organism: Zaire ebolavirus
HLA-A*02:01 = assay: as above
HLA-B*57:01 = assay: as above
HLA-A*69:01 = assay: as above; details: source organism: Zaire ebolavirus
HLA-B*46:01 = assay: as above
HLA-B*39:01 = assay: as above; details: source organism: Zaire ebolavirus
HLA-A*26:01 = assay: as above
HLA-B*27:03 = assay: as above
HLA-A*24:02 = assay: IEDB peptide-MHC binding, purified MHC/competitive/fluorescence; ≥ and ≤ were set here for values at or beyond the usual limits of such assays; details: source organism: Sudan ebolavirus
HLA-A*24:03 [2] = assay: IEDB peptide-MHC binding, purified MHC/direct/fluorescence; filed as Kd, often an IC50 or EC50 that approximates it; ≥ and ≤ were set here for values at or beyond the usual limits of such assays; details: source organism: Zaire ebolavirus
HLA-A*02:12 = assay: as above; details: source organism: Zaire ebolavirus
HLA-A*02:19 = assay: as above; details: source organism: Zaire ebolavirus
HLA-A*29:02 = assay: as above; details: source organism: Zaire ebolavirus
HLA-A*02:16 = assay: as above; details: source organism: Zaire ebolavirus
HLA-A*03:01 [3] = assay: as above; details: source organism: Zaire ebolavirus
HLA-A*02:11 = assay: as above; details: source organism: Zaire ebolavirus
HLA-A*02:03 = assay: as above; details: source organism: Zaire ebolavirus
HLA-A*68:02 [4] = assay: as above; details: source organism: Zaire ebolavirus
HLA-A*24:03 [5] = assay: IEDB peptide-MHC binding, purified MHC/competitive/fluorescence; filed as Kd, often an IC50 or EC50 that approximates it; ≥ and ≤ were set here for values at or beyond the usual limits of such assays; details: source organism: Homo sapiens
HLA-A*03:01 [6] = assay: as above; details: source organism: Homo sapiens
HLA-B*18:01 [7] = assay: IEDB peptide-MHC binding, purified MHC/competitive/radioactivity; filed as Kd, often an IC50 or EC50 that approximates it; ≥ and ≤ were set here for values at or beyond the usual limits of such assays; details: source organism: SARS coronavirus Tor2
HLA-B*44:02 = assay: as above; details: source organism: SARS coronavirus Tor2
HLA-B*40:02 = assay: as above; details: source organism: SARS coronavirus Tor2
HLA-B*44:03 = assay: as above; details: source organism: SARS coronavirus Tor2
HLA-B*40:01 [8] = assay: as above; details: source organism: SARS coronavirus Tor2
HLA-B*45:01 = assay: as above; details: source organism: SARS coronavirus Tor2
HLA-A*68:02 [9] = assay: IEDB peptide-MHC binding, purified MHC/competitive/fluorescence; filed as Kd, often an IC50 or EC50 that approximates it; ≥ and ≤ were set here for values at or beyond the usual limits of such assays
HLA-B*40:01 [10] = assay: IEDB peptide-MHC binding, purified MHC/direct/fluorescence; filed as Kd, often an IC50 or EC50 that approximates it; ≥ and ≤ were set here for values at or beyond the usual limits of such assays; details: source organism: Reston ebolavirus - Reston
[11] = source organism: Zaire ebolavirus

**Q.** What does the source list for EWAENCYNL?
**A.** Kd (HLA-B*15:01; [11]): ≥ 20 µM; Kd (HLA-B*18:01 [1]; [11]): ≥ 20 µM; Kd (HLA-B*15:17): ≥ 20 µM; Kd (HLA-B*51:01): ≥ 20 µM; Kd (HLA-A*02:01; [11]): ≥ 20 µM; Kd (HLA-B*57:01; [11]): ≥ 20 µM; Kd (HLA-A*69:01): ≥ 20 µM; Kd (HLA-B*46:01; [11]): ≥ 20 µM; Kd (HLA-B*39:01): ≥ 20 µM; Kd (HLA-A*26:01; [11]): ≥ 20 µM; Kd (HLA-B*27:03; [11]): ≥ 20 µM; IC50 (HLA-A*24:02): 6.48 µM; Kd (HLA-A*24:03 [2]): ≥ 20 µM; Kd (HLA-A*02:12): ≥ 20 µM; Kd (HLA-A*02:19): ≥ 20 µM; Kd (HLA-A*29:02): ≥ 20 µM; Kd (HLA-A*02:16): ≥ 20 µM; Kd (HLA-A*03:01 [3]): ≥ 20 µM; Kd (HLA-A*02:11): ≥ 20 µM; Kd (HLA-A*02:03): ≥ 20 µM; Kd (HLA-A*68:02 [4]): ≥ 20 µM

**Q.** WLGHPFTPV was tested. Which Kd (HLA-B*15:01; source organism: Homo sapiens) did it give?
**A.** Its Kd is at least 20 µM.

**Q.** What about the Kd (HLA-B*18:01 [1]; source organism: Homo sapiens) of the same sequence?
**A.** Its Kd is at least 20 µM.

**Q.** And the Kd (HLA-A*24:03 [5])?
**A.** Its Kd is at least 20 µM.

**Q.** What about the Kd (HLA-A*02:01; source organism: Homo sapiens) of the same sequence?
**A.** The Kd was 0.0003 µM.

**Q.** And the Kd (HLA-B*57:01; source organism: Homo sapiens)?
**A.** The Kd was at least 20 µM.

**Q.** And the Kd (HLA-B*46:01; source organism: Homo sapiens)?
**A.** The Kd was at least 20 µM.

**Q.** And the Kd (HLA-A*03:01 [6])?
**A.** Its Kd is at least 20 µM.

**Q.** And the Kd (HLA-A*26:01; source organism: Homo sapiens)?
**A.** The Kd was at least 20 µM.

**Q.** What about the Kd (HLA-B*27:03; source organism: Homo sapiens) of the same sequence?
**A.** The Kd was at least 20 µM.

**Q.** QEYADVFHLY was tested. Which Kd (HLA-B*18:01 [7]) did it give?
**A.** The Kd was 0.147 µM.

**Q.** And the Kd (HLA-B*44:02)?
**A.** The Kd was 0.0119 µM.

**Q.** What about the Kd (HLA-B*40:02) of the same sequence?
**A.** The Kd was 0.11 µM.

**Q.** And the Kd (HLA-B*44:03)?
**A.** The Kd was 0.00661 µM.

**Q.** And the Kd (HLA-B*40:01 [8])?
**A.** The Kd was 0.553 µM.

**Q.** What about the Kd (HLA-B*45:01) of the same sequence?
**A.** The Kd was 0.608 µM.

**Q.** Which Kd (HLA-A*68:02 [9]; source organism: Escherichia coli HS) does the source give for NCADHFEGV here?
**A.** Its Kd is 0.0015 µM.

**Q.** DEMVCKWLL was tested. Which Kd (HLA-B*15:01; [11]) did it give?
**A.** Its Kd is at least 20 µM.

**Q.** And the Kd (HLA-B*15:17)?
**A.** Its Kd is at least 20 µM.

**Q.** What about the Kd (HLA-B*51:01) of the same sequence?
**A.** Its Kd is at least 20 µM.

**Q.** What about the Kd (HLA-A*02:01; [11]) of the same sequence?
**A.** Its Kd is at least 20 µM.

**Q.** And the Kd (HLA-B*57:01; [11])?
**A.** The Kd was at least 20 µM.

**Q.** And the Kd (HLA-B*46:01; [11])?
**A.** The Kd was at least 20 µM.

**Q.** And the Kd (HLA-B*39:01)?
**A.** Its Kd is at least 20 µM.

**Q.** And the Kd (HLA-A*26:01; [11])?
**A.** The Kd was at least 20 µM.

**Q.** And the Kd (HLA-B*27:03; [11])?
**A.** Its Kd is at least 20 µM.

**Q.** And the Kd (HLA-A*24:03 [2])?
**A.** The Kd was at least 20 µM.

**Q.** And the Kd (HLA-A*02:12)?
**A.** The Kd was at least 20 µM.

**Q.** What about the Kd (HLA-A*02:19) of the same sequence?
**A.** The Kd was at least 20 µM.

**Q.** And the Kd (HLA-A*29:02)?
**A.** The Kd was at least 20 µM.

**Q.** What about the Kd (HLA-A*02:16) of the same sequence?
**A.** Its Kd is at least 20 µM.

**Q.** What about the Kd (HLA-A*03:01 [3]) of the same sequence?
**A.** Its Kd is at least 20 µM.

**Q.** And the Kd (HLA-B*40:01 [10])?
**A.** The Kd was 0.387 µM.

**Q.** And the Kd (HLA-A*02:11)?
**A.** The Kd was at least 20 µM.

**Q.** And the Kd (HLA-A*02:03)?
**A.** The Kd was at least 20 µM.

**Q.** What about the Kd (HLA-A*68:02 [4]) of the same sequence?
**A.** Its Kd is at least 20 µM.

**Q.** Which Kd (HLA-B*18:01 [7]) does the source give for REFVFKNKDG here?
**A.** The Kd was at least 70.5 µM.

**Q.** What about the Kd (HLA-B*44:02) of the same sequence?
**A.** The Kd was 11.5 µM.

**Q.** And the Kd (HLA-B*40:02)?
**A.** The Kd was 11.5 µM.

**Q.** And the Kd (HLA-B*44:03)?
**A.** The Kd was 0.515 µM.

**Q.** What about the Kd (HLA-B*40:01 [8]) of the same sequence?
**A.** Its Kd is 0.156 µM.

**Q.** What about the Kd (HLA-B*45:01) of the same sequence?
**A.** Its Kd is 5.42 µM.

**Q.** For SEAFEYYHTL, which Kd (HLA-B*18:01 [7]) is on record?
**A.** Its Kd is 2.14 µM.

**Q.** What about the Kd (HLA-B*44:02) of the same sequence?
**A.** The Kd was 0.0105 µM.

**Q.** What about the Kd (HLA-B*40:02) of the same sequence?
**A.** Its Kd is 0.00654 µM.

**Q.** And the Kd (HLA-B*44:03)?
**A.** The Kd was 0.0184 µM.

**Q.** And the Kd (HLA-B*40:01 [8])?
**A.** Its Kd is 0.00118 µM.

**Q.** What about the Kd (HLA-B*45:01) of the same sequence?
**A.** Its Kd is 0.0604 µM.

**Q.** Which results are given for SEVGICLST?
**A.** Kd (HLA-B*18:01 [7]): 4.51 µM; Kd (HLA-B*44:02): 0.12 µM; Kd (HLA-B*40:02): 0.0106 µM; Kd (HLA-B*44:03): 0.0204 µM; Kd (HLA-B*40:01 [8]): 0.241 µM; Kd (HLA-B*45:01): 0.00852 µM

**Q.** For ELWDPSTEA, which Kd (HLA-A*68:02 [9]; source organism: Burkholderia mallei NCTC 10229) is on record?
**A.** Its Kd is 0.0781 µM.
